From the RNAGym collection of RNA variant scans (doi:10.1021/acssynbio.7b00057)

B1: Pistol ribozyme (parent)
chain: GGGUCGUUGUUCCAUAAUCGCGUGGAUAUGGCACGCAAGUUUCUACCGGGCACCGUAAAUGUCCGACUGGAGCCGUUCGGGCGGCUAUAAACAGACCUCAGGCCCGAAGCGUGGCGGCACCUGCCGCCGGUGGUAAAAAAGAUCGGAAGAGCACACGUCU

Variants of: B1
Experiment: aptazyme ON/OFF ratio, guanine; higher = stronger switching; co-transcriptional cleavage with and without guanine

Variant | aptazyme ON/OFF ratio
U8A G9U U11C C12U | 1.13
U8A U10G U11A C12G | 1.1
U8A U10G U11A C12A | 1.06
U8A U10G U11A C12U | 1.12
U8A U10G U11A C12U C13A | 1.42
U8A U10G U11A C12U C13U | 1.31
U8A U10G U11A C12U C13G | 1.35
U8A G9U U10C U11G C12A C13G | 1.25
U8A G9U U10C U11G C12A C13A | 1.19
U8A G9U U10C U11G C12A C13U | 1.12
U8A U10C C12G C13A | 1.19
U8A U10C C12G C13U | 1.44
U8A U10C C12G C13G | 1.45
U8A G9U U10G C12G C13G | 1.15
U8A G9U U10G C12G C13U | 1.28
U8A G9U U10G C12G C13A | 1.29
U8A G9U U10G C12A | 1.18
U8A G9U U10G C12G | 1.13
U8A G9U U10G C12U | 1.13
U8A U10A U11G C12U | 1.52
U8A U10A U11G C12A | 1.12

Variant | aptazyme ON/OFF ratio
U8A U10A U11G C12G | 1.36
U8A U10A C13A | 1.05
U8A U10A C13U | 1.03
U8A U10A C13G | 1.06
U8A G9U U11C C13U | 1.03
U8A G9U U11C C13G | 1.02
U8A G9U U11C C13A | 1.04
U8A G9U U10G U11G C13A | 1.08
U8A G9U U10G U11G C13U | 1.03
U8A G9U U10G U11G C13G | 1.06
U8A U10C U11C C12A | 1.08
U8A U10C U11C C12U | 1.06
U8A U10C U11C C12G | 1.27
U8A U10A U11A C12U | 1.09
U8A U10A U11A C12G | 1.07
U8A U10A U11A C12A | 1.14
U8A U10A U11C C13U | 1.04
U8A U10A U11C C13G | 1.02
U8A U10A U11C C13A | 1.03
U8A G9U U11A C13A | 1.1
U8A G9U U11A C13G | 1.13

Variant | aptazyme ON/OFF ratio
U8A G9U U11A C13U | 1.24
U8A U10G U11C C12G C13A | 1.41
U8A U10G U11C C12G C13G | 1.25
U8A U10G U11C C12G C13U | 1.38
U8A U10C U11A C12U C13U | 1.31
U8A U10C U11A C12U C13G | 1.23
U8A U10C U11A C12U C13A | 1.16
U8A G9U U10C U11C C12A | 1.01
U8A G9U U10C U11C C12U | 1.04
U8A G9U U10C U11C C12G | 1.03
U8A U10C U11A | 1.15
U8A U10C U11C | 1.01
U8A U10C U11G | 1.18
U8A U10A U11G | 1.17
U8A U10A U11A | 1.14
U8A U10A U11C | 1
U8A U10C C13A | 1.05
U8A U10C C13G | 1.05
U8A U10C C13U | 1.19
U8A G9U U11A C12U | 1.47
U8A G9U U11A C12G | 1.09

Variant | aptazyme ON/OFF ratio
U8A G9U U11A C12A | 1.28
U8A G9U U10G | 1.61
U8A U10A U11A C13A | 1.12
U8A U10A U11A C13U | 1.06
U8A U10A U11A C13G | 1.16
U8A U10C U11G C12U C13G | 1.2
U8A U10C U11G C12U C13A | 1.26
U8A U10C U11G C12U C13U | 1.27
U8A U10C C12A C13A | 1.23
U8A U10C C12A C13G | 1.11
U8A U10C C12A C13U | 1.26
U8A G9U U10C U11G C13U | 1.14
U8A G9U U10C U11G C13G | 1.05
U8A G9U U10C U11G C13A | 1.12
U8A G9U U10G U11C C12A | 1.04
U8A G9U U10G U11C C12G | 1.07
U8A G9U U10G U11C C12U | 1.01
U8A G9U U10G U11C C12U C13A | 1.04
U8A G9U U10G U11C C12U C13U | 1.08
U8A G9U U10G U11C C12U C13G | 1.05
U8A U10C C12U C13A | 1.22
